How the values were obtained:
[1] = molecular target: CYP3A4 (Homo sapiens, UniProt P08684); assay: biochemical
[2] = substrate: O=C(CCc1ccc(O)cc1)c1c(O)cc(O)cc1O; assay: purified protein; conditions: heme

Sequence of CYP3A4 (P08684 2-503): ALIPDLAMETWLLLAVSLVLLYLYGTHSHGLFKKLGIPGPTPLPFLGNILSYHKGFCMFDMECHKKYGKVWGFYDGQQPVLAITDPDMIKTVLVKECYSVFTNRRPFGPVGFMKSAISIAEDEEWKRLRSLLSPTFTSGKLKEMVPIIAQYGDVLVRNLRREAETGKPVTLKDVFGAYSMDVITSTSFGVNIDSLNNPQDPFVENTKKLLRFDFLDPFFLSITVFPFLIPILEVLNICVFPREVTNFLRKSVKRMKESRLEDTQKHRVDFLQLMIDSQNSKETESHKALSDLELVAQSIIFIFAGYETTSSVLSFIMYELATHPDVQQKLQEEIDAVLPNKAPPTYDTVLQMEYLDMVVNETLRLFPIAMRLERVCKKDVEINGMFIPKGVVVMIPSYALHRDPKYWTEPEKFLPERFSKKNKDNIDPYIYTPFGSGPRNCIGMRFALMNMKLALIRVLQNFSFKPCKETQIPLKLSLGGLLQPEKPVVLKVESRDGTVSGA
Sequence of CYP3A4 (P00388 2-678 partner): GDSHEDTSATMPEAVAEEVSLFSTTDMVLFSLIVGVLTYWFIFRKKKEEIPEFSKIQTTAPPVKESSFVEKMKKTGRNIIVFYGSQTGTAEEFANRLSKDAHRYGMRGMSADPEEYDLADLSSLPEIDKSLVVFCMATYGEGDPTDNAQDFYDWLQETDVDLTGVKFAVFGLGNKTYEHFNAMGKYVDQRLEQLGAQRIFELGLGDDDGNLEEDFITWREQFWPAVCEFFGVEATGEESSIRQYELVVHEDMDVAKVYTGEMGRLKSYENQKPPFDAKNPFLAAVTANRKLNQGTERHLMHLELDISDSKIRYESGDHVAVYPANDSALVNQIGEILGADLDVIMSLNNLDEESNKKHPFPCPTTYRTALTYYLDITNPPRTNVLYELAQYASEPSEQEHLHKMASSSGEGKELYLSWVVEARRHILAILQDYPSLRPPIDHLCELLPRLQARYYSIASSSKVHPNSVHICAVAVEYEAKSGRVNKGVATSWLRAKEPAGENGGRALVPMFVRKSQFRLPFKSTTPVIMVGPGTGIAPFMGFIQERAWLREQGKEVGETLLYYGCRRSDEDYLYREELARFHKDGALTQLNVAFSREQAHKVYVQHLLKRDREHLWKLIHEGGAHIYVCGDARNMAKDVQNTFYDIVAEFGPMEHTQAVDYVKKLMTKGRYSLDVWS

Molecule | IC50 [1] | Km [2] | kcat [2] | kcat/Km [2]
O=C(CCc1ccc(O)cc1)c1c(O)cc(O)cc1O [phloretin, 3-(4-hydroxyphenyl)-1-(2,4,6-trihydroxyphenyl)propan-1-one] | 13 µM | – | – | –
CYP2C19 (Homo sapiens) (protein) MDPFVVLVLCLSCLLLLSIWRQSSGRGKLPPGPTPLPVIGNILQIDIKDVSKSLTNLSKIYGPVFTLYFGLERMVVLHGYEVVKEALIDLGEEFSGRGHFPLAERANRGFGIVFSNGKRWKEIRRFSLMTLRNFGMGKRSIEDRVQEEARCLVEELRKTKASPCDPTFILGCAPCNVICSIIFQKRFDYKDQQFLNLMEKLNENIRIVSTPWIQICNNFPTIIDYFPGTHNKLLKNLAFMESDILEKVKEHQESMDINNPRDFIDCFLIKMEKEKQNQQSEFTIENLVITAADLLGAGTETTSTTLRYALLLLLKHPEVTAKVQEEIERVIGRNRSPCMQDRGHMPYTDAVVHEVQRYIDLIPTSLPHAVTCDVKFRNYLIPKGTTILTSLTSVLHDNKEFPNPEMFDPRHFLDEGGNFKKSNYFMPFSAGKRICVGEGLARMELFLFLTFILQNFNLKSLIDPKDLDTTPVVNGFASVPPFYQLCFIPV | – | 208 ± 50 µM | 0.0967 s⁻¹ | 467 M⁻¹ s⁻¹

Reference: publication PMC7690628 (Pharmaceuticals, 2020)
